Assay results reported in article PMC6482001 (eLife, 2019).
Like-named read-outs stand apart in the source and are kept apart here.

Columns and labels:
[1] = target: T1, GltTk (Thermococcus kodakarensis, UniProt Q5JID0); assay: isothermal titration calorimetry; assay type: binding
T1 construct: gene TK0986; C-terminally His8-tagged (pBAD24-GltTk-His8), expressed in E. coli MC1061, purified in decylmaltoside-type detergent (DM) or reconstituted in proteoliposomes; homotrimer
Excerpt: (§1) isothermal titration calorimetry on GltTk

[2] = target: T1, GltTk; assay: isothermal titration calorimetry; details: 300 mM NaCl, 100 mM KCl, pH 8.0, 25 °C, 0.15% DM; Na+-coupled binding; cited from earlier work
Excerpt: as §1

[3] = target: glutamate transporter homolog GltTk from Thermococcus kodakarensis (Thermococcus kodakarensis) (UniProt Q5JID0); assay: crystal structure; GltTk with D-aspartate, 2.8 Å; hanging drop vapour diffusion at 5°C, 300 mM NaCl, 300 µM D-aspartate, protein 7 mg/ml in 10 mM Hepes KOH pH 8.0, 100 mM KCl, 0.15% DM; outward-oriented occluded state
[4] = substrate: N[C@H](CC(=O)O)C(=O)O; assay: purified protein; details: 100 mM NaCl outside, pH 7.5, 3 µM valinomycin, labelled compound
[5] = substrate: N[C@@H](CC(=O)O)C(=O)O; assay: purified protein; details: 100 mM NaCl outside, pH 7.5, 3 µM valinomycin, labelled compound

In the case of `N[C@H](CC(=O)O)C(=O)O` [D-aspartate], the Kd [1] is reported as 470 ± 170 nM.

For `N[C@@H](CC(=O)O)C(=O)O` [L-aspartate], the Kd [2] is given as 120 ± 40 nM.

In the case of “glutamate transporter homolog GltTk from Thermococcus kodakarensis (from UniProt Q5JID0 1-430) (natural protein)”, the stoichiometry N [3] is reported as 3.

B1: GltTk (Thermococcus kodakarensis KOD1) (protein)
chain: MGKSLLRRYLDYPVLWKILWGLVLGAVFGLIAGHFGYAGAVKTYIKPFGDLFVRLLKMLVMPIVLASLVVGAASISPARLGRVGVKIVVYYLATSAMAVFFGLIVGRLFNVGANVNLGSGTGKAIEAQPPSLVQTLLNIVPTNPFASLAKGEVLPVIFFAIILGIAITYLMNRNEERVRKSAETLLRVFDGLAEAMYLIVGGVMQYAPIGVFALIAYVMAEQGVRVVGPLAKVVGAVYTGLFLQIVITYFILLKVFGIDPIKFIRKAKDAMITAFVTRSSSGTLPVTMRVAEEEMGVDKGIFSFTLPLGATINMDGTALYQGVTVLFVANAIGHPLTLGQQLVVVLTAVLASIGTAGVPGAGAIMLAMVLQSVGLDLTPGSPVALAYAMILGIDAILDMGRTMVNVTGDLAGTVIVAKTEKELDESKWIS
With B1 the Km [4] was 1.1 ± 0.11 µM and the Km [5] was 0.75 ± 0.17 µM.
